As usually defined, the EC50 is the concentration needed to bring the measured effect to its halfway point. The term Kd denotes the concentration at which binding is half-saturated. Lower therefore signals a tighter complex. The term koff denotes a measure of how fast the partners let go of each other. Low values mean a long-lived complex, high ones a short-lived complex. A word on the kon: it is the rate constant with which the complex forms. Read a high kon as fast association.

First the molecules themselves.
B1: ADI-34857 (antibody, V domains shown)
VH: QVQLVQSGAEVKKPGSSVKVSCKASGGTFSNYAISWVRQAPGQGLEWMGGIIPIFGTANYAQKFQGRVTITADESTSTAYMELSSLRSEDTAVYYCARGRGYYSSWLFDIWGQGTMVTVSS
VL: DIQMTQSPSSLSASVGDRVTITCQASQDITNYLNWYQQKPGKAPKLLIYDASNLETGVPSRFSGSGSGTDFTFTISSLQPEDIATYYCQQAFDLITFGGGTKVEIK
notes: Yeast-expressed fully human antibody purified on protein A
B2: ADI-34848 (antibody, V domains shown)
VH: EVQLLESGGGLVQPGGSLRLSCAASGFTFDDYAMHWVRQAPGKGLEWVSGISWSSGSIGYADSVKGRFTISRDNAKNSLYLQMNSLRAEDTAVYYCAKDSPRRDSFGSIAFDIWGQGTMVTVSS
VL: not shown
notes: as for B1
B3: ADI-34850 (antibody, V domains shown)
VH: B2 VH with L5V, G16R
VL: EIVMTQSPATLSVSPGERATLSCRASQSVGSNLAWYQQKPGQAPRLLIYGASTRATGIPARFSGSGSGTEFTLTISSLQSEDFAVYYCQQSVNLPITFGGGTKVEIK
notes: as for B1
B4: ADI-34849 (antibody, V domains shown)
VH: B2 VH with L5V, G16R
VL: EIVLTQSPATLSLSPGERATLSCRASQSVSSYLAWYQQKPGQAPRLLIYDASKRATGIPARFSGSGSGTDFTLTISSLEPEDFAVYYCQQASALPLTFGGGTKVEIK
notes: as for B1
B5: ADI-34846 (antibody, V domains shown)
VH: QVQLVQSGAEVKKPGSSVKVSCKASGGTFSNYAISWVRQAPGQGLEWMGGIIPIFGTANYAQKFQGRVTITADESTSTAYMELSSLKSEDTAVYYCARGSGYYSSWLFDIWGQGTMVTVSS
VL: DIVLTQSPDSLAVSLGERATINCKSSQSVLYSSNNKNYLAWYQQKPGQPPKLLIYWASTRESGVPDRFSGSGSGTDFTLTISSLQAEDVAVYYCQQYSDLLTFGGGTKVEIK
notes: as for B1
B6: ADI-34832 (antibody, V domains shown)
VH: QITLKESGPTLVKPTQTLTLTCTFSGFSLSTSGVGVGWIRQPPGKALEWLALIYWNDEKRYSPSLKSRLTITKDTSKNQVVLTMTNMDPVDTAVYYCARDPGEQLQVFDYWGQGTLVTVSS
VL: DIQMTQSPSSVSASVGDRVTITCRASQGISSWLAWYQQKPGKAPKLLIYAASSLQSGVPSRFSGSGSGTDFTLTISSLQPEDFATYYCQQTLSLPITFGGGTKVEIK
notes: as for B1
B7: ADI-34859 (antibody, V domains shown)
VH: QLQLQESGPGLVKPSETLSLTCTVSGGSISSSSYYWGWIRQPPGKGLEWIGSISYSGSTYYNPSLKSRVTISVDTSKNQFSLKLSSVTAADTAVYYCARDRGDTILDVWGQGTMVTVSS
VL: B6 VL with V11L, G28S, S30N, W32Y, A34N, T91K, L92A, L94A
notes: as for B1
B8: ADI-34854 (antibody, V domains shown)
VH: QVQLVESGGGVVQPGRSLRLSCAASGFTFSSYGMHWVRQAPGKGLEWVAVISYEGSNKYYADSVKGRFTISRDNSKNTLYLQMNSLRAEDTAVYYCARDTSSYGDASYGMDVWGQGTTVTVSS
VL: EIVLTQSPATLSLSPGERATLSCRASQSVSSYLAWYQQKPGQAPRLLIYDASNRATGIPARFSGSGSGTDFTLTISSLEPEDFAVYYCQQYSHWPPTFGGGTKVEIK
notes: as for B1
B9: ADI-34860 (antibody, V domains shown)
VH: B7 VH
VL: DIQMTQSPSSLSASVGDRVTITCRASQSISSYLNWYQQKPGKAPKLLIYAASSLQSGVPSRFSGSGSGTDFTLTISSLQPEDFATYYCQQKYDLLTFGGGTKVEIK
notes: as for B1
B10: ADI-34861 (antibody, V domains shown)
VH: B7 VH
VL: B9 VL with S31R, D93F, L94D, L95I
notes: as for B1
B11: human BCMA on NCI-H929 cells (receptor)
chain: MLQMAGQCSQNEYFDSLLHACIPCQLRCSSNTPPLTCQRYCNASVTNSVKGTNAILWTCLGLSLIISLAVFVLMFLLRKINSEPLKDEFKNTGSGLLGMANIDLEKSRTGDEIILPRGLEYTVEECTCEDCIKSKPKVDSDHCFPLPAMEEGATILVTTKTNDYCKSLPAALSATEIEKSISAR
notes: BCMA-positive human multiple myeloma cell line NCI-H929 (ATCC CRL-9068); also called B-cell maturation antigen; CD269
B12: human BCMA-His (receptor)
chain: MLQMAGQCSQNEYFDSLLHACIPCQLRCSSNTPPLTCQRYCNASVTNSVKGTNA
notes: Bought antigen (ACRO BIOSYSTEMS, BCA-H522Y); probably only the extracellular domain stood in the assay; also called hBCMA-His; monovalent human BCMA; not shown: His tag

Numbering of substitutions follows the chain as printed. Names may count otherwise.

The target in experiment [1] is B11. Put plainly: flow cytometry on NCI-H929 cells, yeast-expressed antibody. The method, then: The method is specifically as follows: [0293] 1. A human NCI-H929 (ATCC, CRL-9068) cell suspension was taken, adjusted to a cell density of 2×10⁶ cells/mL, and added to a 96-well microplate at 100 μL/well. The cell suspension was centrifuged at 400 G for 5 min and the supernatant was removed. [0294] 2. The anti-BCMA antibody solution was serially diluted in 3-fold gradient in PBS containing 0.1% bovine serum albumin (BSA) from a concentration of 400 nM for a total of 12 points, 100 μL of the dilution of the antibody was added to each well, and then the plate was incubated at 4° C. for 30 min [0295] 3. The mixture was centrifuged at 400 G for 5 min, and washed twice with PBS, and […] of a dilution of a secondary antibody (a phycoerythrin (PE) labeled goat anti-human IgG antibody, SouthernBiotech, final concentration: 5 μg/mL) in PBS (1% BSA) was added to each well. The plate was incubated at 4° C. for 30 min (in the dark). [0296] 4. Then the resulting solution was centrifuged at 400 G for 5min, and washed twice with PBS, and the cells were resuspended with 100 μL of PBS per well. Flow cytometry was performed on an Accuri C6 system (BD Bioscience) to detect PE positive signals, and MFI was calculated based on C6 software. The EC50 values were calculated using GraphPad software.
On the technique in general: Flow cytometry measures light scatter and fluorescence of single cells or particles in a stream.

For experiment [2], the target named is ADI-34848 scFv-hFc. Description: flow cytometry on NCI-H929 cells, scFv-hFc.
Experiment [3] has as its target ADI-34848 scFv-hFc. Description: BLI (ForteBio Octet Red96), scFv-hFc on AHC sensors, human BCMA-His in solution. The procedure:
The kinetic constants of the antibody molecules were determined based on the biofilm layer interferometry (BLI) of a fiber optic biosensor.
The Fortebio instrument model used in the experiment was Octet Red96, and a ForteBio affinity assay was performed according to the existing method (Estep, P et al., High throughput solution Based measurement of antibody-antigen affinity and epitope binning MAbs, 2013.5 (2): p. 270-8). The assay is specifically as follows: [0317] 1. Half an hour before the experiment, an appropriate number of AHC sensors were taken according to the number of samples and soaked in the SD buffer (50 mL PBS+0.1% BSA +0.05% Tween-20). [0318] 2. SD buffer, scFv-hFc antibodies and human BCMA-His antigens (ACRO BIOSYSTEMS, BCA-H522Y), each of 100 μL were added to a 96-well half-area black polystyrene microplate respectively. [0319] 3. The plates were arranged according to the positions of the samples, the positions of the sensors were selected, and the operation procedures were set as: Baseline, Loading ˜1 nm, Baseline, Association, and Dissociation, each running for a time depending on the binding and dissociation rates of the sample, at a rotation speed of 1,000 rpm and a temperature of 30° C. [0320] 4.

In the case of B1, the half-maximal effective concentration (EC50) in experiment [1] is 25.2 nM.

Regarding B2, in experiment [1], the EC50 came to 24.8 nM.

Turning to B3, the EC50 in experiment [1] was 12.1 nM.

In experiment [1], B4 had an EC50 of 9.11 nM.

B5: in experiment [1], it took 136 nM to reach a half-maximal effect (EC50). This EC50 is about 15-fold higher than that of the molecule before.

Consider B6, for which the EC50 in experiment [1] came out at 34.1 nM.

B7 showed an EC50 in experiment [1] of 85.8 nM.

Molecule B8 showed a half-maximal effective concentration (EC50) in experiment [1] of 83.2 nM.

In the case of B9, the response in experiment [1] was half-maximal at 144 nM (EC50).

As to B10, the response in experiment [1] was half-maximal at 65.1 nM (EC50). This EC50 lies about 2.2-fold lower than the previous one.

Turning to B11, in the experiment with ADI-34848 scFv-hFc [2], the binding result is reported as “binds”.

B12: in the experiment with ADI-34848 scFv-hFc [3], the Kd is 71.1 nM, the koff was 0.0145 s⁻¹ and the kon was determined as 204000 M⁻¹ s⁻¹.
